Assay results from patent US20140148361, “Generation and Expression of Engineered I-ONUI Endonuclease and Its Homologues and Uses Thereof” (published 2014).

T1: I-LtrI (Leptographium truncatum, UniProt C7SWF3 C7SWF3:407-712)
T1 sequence: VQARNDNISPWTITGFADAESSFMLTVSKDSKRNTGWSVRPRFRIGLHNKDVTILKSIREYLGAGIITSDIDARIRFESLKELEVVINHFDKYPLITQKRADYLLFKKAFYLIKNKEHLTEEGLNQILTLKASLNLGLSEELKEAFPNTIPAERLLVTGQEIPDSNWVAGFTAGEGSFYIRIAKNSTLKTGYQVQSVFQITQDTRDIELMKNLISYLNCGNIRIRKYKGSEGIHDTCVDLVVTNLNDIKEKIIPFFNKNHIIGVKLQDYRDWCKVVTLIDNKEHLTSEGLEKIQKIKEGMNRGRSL

T2: I-OnuI (Ophiostoma novo-ulmi)
T2 chain: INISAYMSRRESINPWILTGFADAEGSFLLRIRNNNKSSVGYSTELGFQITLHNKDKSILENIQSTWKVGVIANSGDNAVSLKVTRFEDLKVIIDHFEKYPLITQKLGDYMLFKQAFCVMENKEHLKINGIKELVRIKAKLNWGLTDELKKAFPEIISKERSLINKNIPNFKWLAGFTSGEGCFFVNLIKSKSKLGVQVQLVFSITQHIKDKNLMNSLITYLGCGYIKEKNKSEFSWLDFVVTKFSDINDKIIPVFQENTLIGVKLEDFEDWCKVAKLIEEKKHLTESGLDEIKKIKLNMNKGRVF

B1: I-LtrI co-crystal duplex (dsDNA)
DNA 1: GGTCTAAACGTCGTATAGGAGCATTTGG
DNA 2: CAAATGCTCCTATACGACGTTTAGACCC
B2: I-OnuI wild-type target site (RPS3) (dsDNA)
DNA 1: TTTCCACTTATTCAACCTTTTA
DNA 2: TAAAAGGTTGAATAAGTGGAAA

How the values were obtained:
[1] = target: T1, I-LtrI; assay: structure; co-crystal structure at 2.7 A (PDB 3R7P); conditions: overhang ends
Description: To obtain I-LtrI-DNA co-crystals, the DNA oligonucleotides (5′-[…]-3′ (SEQ ID NO: 119) and 5′-[…]-3′ (SEQ ID NO:120)) were purchased from Integrated DNA Technologies ([…], standard desalting purification). The oligonucleotides were dissolved in TE buffer (10 mM Tris-HCl (pH 8.0) and 1 mM EDTA), and the complementary DNA strands were annealed by incubation at 95° C. for 10 min and slow cooling to 4° C. over a six hour period. […] The protein-DNA drops were mixed in a 1:1 volume ratio with a reservoir solution containing 100 mM Bis-Tris (pH 6.5), 200 mM magnesium chloride, and 20% (v/v) polyethylene glycol 3500 and equilibrated at 22° C. The crystals diffracted up to approximately 2.7 Å resolution at the ALS beamline 5.0.1. The data set was processed using HKL2000 package. The polyalanine model of I-OnuI/DNA complex (PDB ID: 3QQY) was used as a search model for molecular replacement. One copy of the search model was found and the structure was refined using REFMAC5. The final model was deposited in RCSB Protein Data Bank with ID code 3R7P.

[2] = target: T2, I-OnuI; assay: structure; co-crystal structure at 2.4 A (PDB 3QQY); conditions: tags: GST fusion (pGEX-6P-3), tag removed by PreScission protease; label: 32P (radiolabeled) in EMSA and cleavage

Binder | binding result [1] | binding result [2]
B1 | binds | 
B2 |  | binds
